Results published in US20200292553A1, “COMPOSITION FOR PREDICTING OR DIAGNOSING LIVER DISEASE, AND LIVER DISEASE PREDICTION OR DIAGNOSIS METHOD USING SAME” (SEOUL NATIONAL UNIVERSITY HOSPITAL, priority 2017, published 2020).

What was measured:
Kupffer cells = assay: GDF15 mRNA expression after palmitate treatment, Kupffer cells; type: cell-based; settings: for increase in GDF15 mRNA expression: after 6 hours
Method: Primary hepatic cells were isolated and differentiated into hepatocytes, HSCs, Kupffer cells, and liver sinusoidal endothelial cells (LSECs). Kupffer cells are macrophages present in the liver, and are known to play an essential role in the initiation of inflammation. To distinguish Kupffer cells and LSECs, magnetic-activated cell sorting (MACS) was performed using the MiniMACS™ separator system (MiltenyiBiotec, Seoul, Korea). The purity of LSECs was evaluated by fluorescence-activated cell sorting using anti-PE antibody (purity of 90% or higher). Primary cells were cultured in 1.5 mL of a serum-free medium for 4 hours, and treated with 5(w/w)% of bovine serum albumin (BSA, control), 200 μM palmitate/5(w/w)% BSA solution, and 500 μM palmitate/5(w/w)% BSA, respectively. After 3 and 6 hours, cells were collected and further analyzed. Reverse-transcription polymerase chain reaction (RT-PCR) and real-time PCR were performed to assess the expression of GDF15 mRNA after palmitate treatment.

[1] = test system: LX-2 cells (human hepatic stellate cells); assay: rhGDF15 treatment of LX-2 cells, fibrosis markers by immunoblotting and immunofluorescence; type: cell-based
Method: (§1) Recombinant human GDF15 (rhGDF15; R&D Systems; 957-GD-025) was added to LX-2 cells (human hepatic stellate cells, KAIST), cultured in the presence of 100 ng/mL GDF15 and 10 ng/mL TGF-β, and primary hepatocytes, directly isolated from the mouse liver, at […] per 3×10^5 cells/6 wells. The levels of fibrosis markers, such as alpha-smooth muscle actin (α-SMA) and collagen 1, were assessed by immunoblotting, immunohistochemistry, and immunofluorescence staining.

primary hepatocytes = assay: rhGDF15 treatment of primary hepatocytes, immunoblotting; type: cell-based, mouse; settings: FIG. 4D
Method: as §1

Molecule	increase in GDF15 mRNA expression (Kupffer cells; 200 μM, P=0.009, FIG. 5B)	increase in GDF15 mRNA expression level (Kupffer cells; 500 μM, after 3 hours, P=0.004, FIG. 5A)	increase in GDF15 mRNA expression (Kupffer cells; 500 μM, P=0.032, FIG. 5B)	cell apoptosis ([1]; LX-2 cells, FIG. 4A)	expression of fibrosis markers α-SMA and collagen 1 ([1]; LX-2 cells, immunoblotting, FIG. 4A)	α-SMA expression, immunofluorescent staining ([1]; LX-2 cells, treatment for 12 hours, FIG. 4B)	acute stimulatory effect on hepatocytes ([1]; after 12 hours)	time to increase of α-SMA level after treatment ([1]; after GDF15 treatment)	time to induction of SMAD phosphorylation after treatment ([1]; after GDF15 treatment)	phosphorylation of SMAD2 and SMAD3 ([1]; printed as human hepatocytes, FIG. 4C (LX-2 cells))	phosphorylation of SMAD2 and SMAD3 (primary hepatocytes)
CCCCCCCCCCCCCCCC(=O)O [palmate, palmitate]	2.5 fold	approximately 2 fold	1.5 fold	–	–	–	–	–	–	–	–
rhGDF15: Recombinant human GDF15 (rhGDF15; R&D Systems; 957-GD-025), growth differentiation factor 15 protein (protein, listed as Homo sapiens) ARARNGDHCPLGPGRCCRLHTVRASLEDLGWADWVLSPREVQVTMCIGACPSQFRAANMHAQIKTSLHRLKPDTVPAPCCVPASYNPMVLIQKTDTGVSLQTYDDLLAKDCHCI	–	–	–	not influenced	increased	high expression	remarkably reduced	≤ 12 h	≤ 3 h	increasing	upregulating
